Our source for the parasite growth with 30 µM rGpA, strains 3D7, Dd2 and FVO/FCR1 and stoichiometry N values is publication PMC4173783.

Assay [1] concerns the target Plasmodium falciparum EBA-175 region II (P. falciparum).
Assay [2] deals with recombinant GpA extracellular domain fused to Fc and His tag (rGpA-Fc-His) (human) (UniProt P02724). The assay can be described thus: AUC.
For assay [3] the target is unchanged. Kind of assay: SDS-PAGE without and with reducing agent.

Broadly, the stoichiometry N is a count of units in the complex or per binding partner. In assay [1], “recombinant GpA extracellular domain fused to Fc and His tag (rGpA-Fc-His) (from UniProt P02724 23-84) (Fc fusion)” gave a parasite growth with 30 µM rGpA, strains 3D7, Dd2 and FVO/FCR1 of 50%. Besides, the stoichiometry N in assay [2] and in assay [3] was 2 each time.
